B1: wild-type ecdysone receptor DNA binding domain (EcRDBDWT) [Drosophila melanogaster] / ultraspiracle DNA binding domain (UspDBD) [Drosophila melanogaster] (parent)
chain 1: APRVQEELCLVCGDRASGYHYNALTCEGCKGFFRRSVTKSAVYCCKFGRACEMDMYMRRKCQECRLKKCLAVGMRPECVVPENQCAMKRREKKAQKEKDKMTTSPSSQHG
chain 2: NHPLSGSKHLCSICGDRASGKHYGVYSCEGCKGFFKRTVRKDLTYACRENRNCIIDKRQRNRCQYCRYQKCLTCGMKREAVQEERQ
B2: wild-type ecdysone receptor DNA binding domain (EcRDBDWT) [Drosophila melanogaster] / itself (parent)
chain: B1 chain 1

The source of these data is paper PMC3900457.

The first experiment covers variants of B1. The experiment in a line: EMSA. As to conditions: with ultraspiracle DNA binding domain (UspDBD) [Drosophila melanogaster]; equimolar mixture of EcRDBD and UspDBD, total protein 200 nM; heterodimer complex (CIIUE) on hsp27pal DNA probe; parent: 62; read off a plot. A general note: Mobility shift assays separate free from complexed probe on a gel.
For chain 1 M57W, the response (% hsp27pal bound) was 61.

Take chain 1 L24R: the response (% hsp27pal bound) was 58.

Regarding chain 1 L66F, the response (% hsp27pal bound) worked out at 64.

In the case of chain 1 C69A, the response (% hsp27pal bound) was 55.

Consider chain 1 V72E, for which the response (% hsp27pal bound) came out at 42.

Regarding chain 1 V72M, the response (% hsp27pal bound) was determined as 57.

The experiment is the same for the next values; noted with them: with ultraspiracle DNA binding domain (UspDBD) [Drosophila melanogaster]; equimolar mixture of EcRDBD and UspDBD, total protein 50 nM; heterodimer complex (CIIUE) on hsp27pal DNA probe; parent: 42; read off a plot.
Regarding chain 1 L24R M57W L66F, the response (% hsp27pal bound) worked out at 57.

Consider chain 1 L24R M57W, for which the response (% hsp27pal bound) was 45.

With chain 1 L24R L66F, the response (% hsp27pal bound) was 39.

For the variant chain 1 M57W L66F, the response (% hsp27pal bound) amounted to 51.

In the next experiment the parent is B2. The experiment in a line: EMSA. As to conditions: with itself; total protein 200 nM; homodimer complex (CIIE) on hsp27pal DNA probe; parent: 44; read off a plot.
In the case of chain 1 M57W, the response (% hsp27pal bound) was determined as 42.

chain 1 L66F: the response (% hsp27pal bound) stood at 47.

Regarding chain 1 L24R, the response (% hsp27pal bound) is 45.

In the case of chain 1 V72M, the response (% hsp27pal bound) came out at 23.

Regarding chain 1 V72E, the response (% hsp27pal bound) stood at 7.4.

For chain 1 C69A, the response (% hsp27pal bound) was determined as 39.

The same experiment, now with this note: with itself; total protein 50 nM; homodimer complex (CIIE) on hsp27pal DNA probe; parent: 19; read off a plot.
On to chain 1 L24R L66F, for which the response (% hsp27pal bound) was 20.

Regarding chain 1 L24R M57W, the response (% hsp27pal bound) was 22.

For the variant chain 1 M57W L66F, the response (% hsp27pal bound) was found to be 31.

With chain 1 L24R M57W L66F, the response (% hsp27pal bound) is 36.
